Measurements reported in article PMC9079946, “Enzyme-free ultrasensitive fluorescence detection of epithelial cell adhesion molecules based on a toehold-aided DNA recycling amplification strategy†”.

Legend:
[1] = biological target: CD86 (UniProt P42081 24-247); assay: strand a displacement with toehold-aided fluorescence amplification; 100 ng/mL CD86; slight fluorescence change only; 20 mM Tris-HCl, 100 mM NaCl, 10 mM KCl, 10 mM MgCl2, pH 7.5, 37 °C, 30 min; settings: protein: commercial; partial duplex: 15 nt strand a hybridised to 48 nt aptamer; single-stranded 5' and 3' aptamer overhangs
Chain of CD86 (P42081 24-247): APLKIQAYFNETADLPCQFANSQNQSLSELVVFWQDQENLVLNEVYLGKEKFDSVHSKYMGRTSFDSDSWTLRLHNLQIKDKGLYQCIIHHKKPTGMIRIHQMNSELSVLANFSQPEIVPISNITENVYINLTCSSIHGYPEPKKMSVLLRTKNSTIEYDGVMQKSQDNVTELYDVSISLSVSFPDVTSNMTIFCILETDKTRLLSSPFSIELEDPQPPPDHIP

[2] = biological target: T1, EpCAM (UniProt P16422 24-265); assay: strand a displacement with toehold-aided fluorescence amplification; 30 nM aptamer/strand a, 50 ng/mL EpCAM, 10 mM Mg2+; strands b, c, d, e 100 nM; 20 mM Tris-HCl, 100 mM NaCl, 10 mM KCl, 10 mM MgCl2, pH 7.5, 37 °C, 30 min; settings: protein: commercial; partial duplex: 15 nt strand a hybridised to 48 nt aptamer; single-stranded 5' and 3' aptamer overhangs
T1 sequence: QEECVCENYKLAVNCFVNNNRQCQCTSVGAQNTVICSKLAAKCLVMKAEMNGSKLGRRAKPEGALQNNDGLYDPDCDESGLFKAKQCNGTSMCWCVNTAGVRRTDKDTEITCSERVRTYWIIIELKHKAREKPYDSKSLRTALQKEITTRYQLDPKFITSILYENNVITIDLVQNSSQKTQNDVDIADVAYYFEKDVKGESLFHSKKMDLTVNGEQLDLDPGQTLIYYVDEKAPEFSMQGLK

B1: EpCAM aptamer / strand a duplex (mixed)
DNA 1: CACTACAGAGGTTGCGTCTGTCCCACGTTGTCATGGGGGGTTGGCCTG
DNA 2: AGACGCAACCTCTGT
- binding result [1]: no binding
- binding result [2]: binds
